This note sets out measurements from patent publication EP4692122A1, “HUMANIZED ANTIBODIES TARGETING EPHA10” (priority 2023, dated 2024).

In test [1] the target is T1, EphA10 fused with human Fc (Homo sapiens, UniProt Q5JZY3).
T1 construct: a vector for expressing an extra cellular domain (ECD) of EphA10 or a FNIII domain of the ECD was produced; made in house; host or cells: Expi293F
T1 sequence (Q5JZY3 34-565 limits assumed): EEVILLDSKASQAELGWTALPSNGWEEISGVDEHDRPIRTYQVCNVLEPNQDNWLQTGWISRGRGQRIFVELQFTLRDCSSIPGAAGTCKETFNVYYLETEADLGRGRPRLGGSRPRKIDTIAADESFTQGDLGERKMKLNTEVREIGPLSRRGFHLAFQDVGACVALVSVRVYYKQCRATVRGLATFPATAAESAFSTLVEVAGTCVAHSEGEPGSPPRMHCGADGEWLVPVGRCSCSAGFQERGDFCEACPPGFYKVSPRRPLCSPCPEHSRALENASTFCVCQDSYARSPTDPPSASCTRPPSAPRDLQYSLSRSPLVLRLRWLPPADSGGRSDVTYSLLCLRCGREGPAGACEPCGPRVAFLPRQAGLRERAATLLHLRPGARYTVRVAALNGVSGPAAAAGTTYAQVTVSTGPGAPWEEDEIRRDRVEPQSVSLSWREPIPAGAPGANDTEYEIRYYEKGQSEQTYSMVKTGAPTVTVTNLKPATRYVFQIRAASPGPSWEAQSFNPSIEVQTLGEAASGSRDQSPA
The experiment in a line: ELISA analysis of binding activity to EphA10. The following applies: ELISA (FIG. 11, FIG. 20). Here is the method: The binding activity to EphA10 of the five EphA10-binding humanized antibodies purified in Example 3 was analyzed by ELISA. Specifically, 4 µg/ml of EphA10 fused with human Fc was diluted with a 0.05 M Na2CO3 (pH 9.6) solution and immobilized in 50 µl of a Flat Bottom Polystyrene High Bind 96-well microplate (costar) at 4°C for 16 hours, and then blocked with 100 µl of 4% skim milk (GenomicBase) at room temperature for 2 hours. […] 50 µl of a 1-Step Ultra TMB-ELISA substrate solution (Thermo Fisher Scientific) was added to develop color, and then added with 50 µl each of 2 M H2SO4 to terminate the reaction, and then analyzed using an Epoch microplate spectrophotometer (BioTek). […]
As the sequencing result, it was confirmed that a free cysteine amino acid that was not involved in disulfide bonds existed in the CDR region of the light chain of the EphA10-specific humanized antibody (FIG. 10). […] To verify this, the binding activities of EphA10-specific humanized antibody 1-1 and EphA10-targeting ADC antibody 1-1 (ADC) after ADC production were analyzed and compared by ELISA.
In Example 8 above, the binding activity to EphA10 of antibodies 1-1-A, 1-1-S, 1-2-A, and 1-2-S, in which the free cysteines present in the light chains of two types of EphA10-specific humanized antibodies 1-1 and 1-2 were substituted with serines and alanines, was analyzed by ELISA. […]

Test [2] has as its system hEphA10 overexpressing cell line. The experiment in a line: Cancer cell killing by cell survival analysis using ATP measurement (CellTiter-Glo). In kind it is cell-based, human. The following applies: stated as a consequence of the lost EphA10 binding of the ADC (FIG. 11). The procedure: To confirm the efficacy of ADC in vitro, a cancer cell killing effect was confirmed through cell survival analysis using ATP measurement. Specifically, MDA-MB-231 naive cells (control group), a mock cell line (negative control group), and a hEphA10 overexpressing cell line were dispensed at 2 × 10^4 per well in a 96-well white plate (SPL), respectively, and the following day, the ADC produced in Example 6 was diluted in RPMI (Capricorn) for each concentration, treated by 100 µl per well, and then incubated at 37°C for 48 hours. The ADC-treated plate was incubated at room temperature outside the incubator for 5 minutes, 50 µl of a CellTiter-Glo solution was added to each well, and then the plate was shaken at 500 rpm for 2 minutes. After reacting for 10 minutes on a room temperature bench in a light-blocked state, ATP was measured using a Synergy HTX multimode reader (Biotek).
To verify the effect of two types of EphA10-targeting ADCs A7-MMAE and 2W_MMAE produced using A7 and 2W antibodies, cell viability analysis of cancer cells was performed by measuring ATP as in Example 7-1 above.

B1: 1-1 (ADC) (conjugate)
VH: QVTLKESGPTLVKPTQTLTLTCTFSGFSLSTSGMGVGWIRQPPGKALEWLAHIWWDDVKRYNPALKSRLTITKDTSKNQVVLTMTNMDPVDTATYYCARTSFPAGVDYWGQGTLVTVSS
VL: DVVMTQSPLSLPVTLGQPASISCRSSQSLQNSNGNTCLNWFQQRPGQSPRRLIYRVSNRFSGVPDRFSGSGSGTDFTLKISRVEAEDVGVYYCLQVTHVPFTFGQGTKLEIKR
modifications: non-natural residues
Consider B1, for which the “EphA10 binding activity of the ADC compared with the antibody before ADC production” value in test [1] was “greatly reduced”. Further, the “in vitro ADC efficacy” value in test [2] is “greatly reduced”.
